Assays:
[1] = biological target: T1, human 4-1BB, full-length, expressed on cells (human, UniProt Q07011 24-255); assay: flow cytometry, Jurkat-4-1BB
T1 construct: also called CD137; TNFRSF9
Experimental: Jurkat T cells engineered to stably express human 4-1BB were used to measure binding of antibodies to human 4-1BB. Antibodies were diluted in 5 μl FB (PBS 2% FCS) 1:3 from stock in wells of a 96 V-well plate, and cells added on top. The cells were then left on ice for 30 minutes for the antibodies to bind. The cells were then washed twice in FB, and then incubated in 50 μl FB containing 2 μg/ml goat anti-human Alexa647 antibody (Jackson Immunoresearch). The cells were then left on ice for a further 20 minutes, washed twice in FB, resuspended in 100 μl FB and analysed on a BD Fortessa™ X20. The subsequent data files were analysed using FlowJo™ and Prism 7 (GraphPad) using a four-parameter non-linear regression.

[2] = biological target: T2, purified human monomeric 4-1BB (human, UniProt Q07011 24-186); assay: SPR, mean n=3;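 note: antibodies captured on anti-human Fc chip, 4-1BB injected as five-point two-fold series from 40 nM by single-cycle kinetics at 25 °C, sensorgrams fitted to 1:1 Langmuir model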
T2 construct: the assay used the 4-1BB part released by Factor Xa with the Fc removed; also called h4-1BB; human 4-1BB
T2 sequence (Q07011 other isoform, or with tags, fused parts or gaps limits assumed): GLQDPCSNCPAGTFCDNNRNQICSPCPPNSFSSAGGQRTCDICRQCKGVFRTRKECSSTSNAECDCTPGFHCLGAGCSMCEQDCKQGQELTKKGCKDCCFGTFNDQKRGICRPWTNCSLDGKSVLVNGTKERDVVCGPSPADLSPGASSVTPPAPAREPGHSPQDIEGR
Experimental: The anti-human Fc surface was prepared on a CMS Series S sensorchip by standard amine coupling methods as described by the manufacturer (GE Healthcare). Briefly, immediately after EDC/NHS activation, a 25 μg/mL solution of anti-human Fc in 10 mM NaOAc pH 4.5 was injected at a flow rate of 10 μL/min for 420 s until approximately 2000 resonance units (RUs) were immobilized on all four flow cells. The remaining active groups were quenched by a 420 s injection of 1M ethanolamine at 10 μL/min.
Antibodies for analysis were captured onto the anti-Fc surface by injecting 5 μg/mL solutions at a flow rate of 10 μL/min for 60 s. Using single-cycle kinetics, five concentrations of a two-fold dilution series of 4-1BB starting at 40 nM (for both supernatant and purified antibody runs) with a blank buffer control were sequentially injected at 40 μL/min for 180 s with a 600 s dissociation phase, resulting in a set of sensorgrams with a buffer blank reference. Experiments were performed at a constant temperature of 25° C. The anti-human Fc surfaces were regenerated to prepare for the next injection cycle by one pulse of 10 mM Glycine/HCl pH 1.5 for 120 s at 40 μL/min. Blank-subtracted sensorgrams were analyzed using Biacore™ T200 Evaluation Software v3.0. The blank-subtracted sensorgrams were then fit to the 1:1 Langmuir binding model.
Protein material post protein-A or SEC was assessed for binding to human 4-1BB.

T1 sequence (Q07011 24-255): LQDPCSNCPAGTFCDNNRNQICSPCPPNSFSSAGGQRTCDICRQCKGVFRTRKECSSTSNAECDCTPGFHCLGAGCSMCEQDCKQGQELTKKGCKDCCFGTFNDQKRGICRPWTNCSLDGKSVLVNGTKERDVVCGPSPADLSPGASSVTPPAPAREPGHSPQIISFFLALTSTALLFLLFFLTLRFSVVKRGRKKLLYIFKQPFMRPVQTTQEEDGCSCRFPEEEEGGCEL

| EC50 [1] [nM] | Kd [2] [nM] | Binder |
| --- | --- | --- |
| 0.36 | 69.2 | v28688 (antibody, human IgG1, kappa, L234A L235A, V domains shown, also called humanized 1G1 H2L2) VH: EVQLVESGGGLVQPGGSLRLSCAASGFTFSEFGMHWVRQAPGKGLEWVAYISSGGSTIYYADSVKGRFTISRDNAKNSLYLQMNSLRAEDTAVYYCARDWVDYWGQGTLLTVSS VL: EIVLTQSPATLSLSPGERATLSCKASENVGSYVSWYQQKPGQAPRLLIYGASNRYTGVPARFSGSGSGTDFTLTISSLEPEDFAVYYCGQSYSYPLTFGGGTKVEIKR |
|  | 31.1 | v28686 (antibody, human IgG1, kappa, L234A L235A, V domains shown, also called humanized 1G1 H1L4) VH: EVQLVESGGGLVQPGGSLRLSCAASGFTFSEFGMHWVRQAPGKGLEWVSYISSGGSTIYYADSVKGRFTISRDNAKNSLYLQMNSLRAEDTAVYYCARDWVDYWGQGTLVTVSS VL: EIVMTQSPATLSLSPGERVTLSCKASENVGSYVSWYQQKPGQAPRLLIYGASNRYTGVPARFSGSGSGTDFTLTISSVEPEDLAVYYCGQSYSYPLTFGGGTKLELKR |
| 0.0551 | 31.2 | v28685 (antibody, human IgG1, kappa, L234A L235A, V domains shown, also called humanized 1G1 H1L3) VH: EVQLVESGGGLVQPGGSLRLSCAASGFTFSEFGMHWVRQAPGKGLEWVSYISSGGSTIYYADSVKGRFTISRDNAKNSLYLQMNSLRAEDTAVYYCARDWVDYWGQGTLVTVSS VL: EIVMTQSPATLSLSPGERVTLSCKASENVGSYVSWYQQKPGQAPRLLIYGASNRYTGVPARFSGSGSGTDFTLTISSVEPEDFAVYYCGQSYSYPLTFGGGTKLELKR |
| 0.223 | 42.3 | v28683 (antibody, human IgG1, kappa, L234A L235A, V domains shown, also called humanized 1G1 H1L1) VH: EVQLVESGGGLVQPGGSLRLSCAASGFTFSEFGMHWVRQAPGKGLEWVSYISSGGSTIYYADSVKGRFTISRDNAKNSLYLQMNSLRAEDTAVYYCARDWVDYWGQGTLVTVSS VL: EIVLTQSPATLSLSPGERATLSCKASENVGSYVSWYQQKPGQAPRLLIYGASNRYTGIPARFSGSGSGTDFTLTISSLEPEDFAVYYCGQSYSYPLTFGGGTKVEIKR |
| 0.376 | 34.4 | v28690 (antibody, human IgG1, kappa, L234A L235A, V domains shown, also called humanized 1G1 H2L4) VH: EVQLVESGGGLVQPGGSLRLSCAASGFTFSEFGMHWVRQAPGKGLEWVAYISSGGSTIYYADSVKGRFTISRDNAKNSLYLQMNSLRAEDTAVYYCARDWVDYWGQGTLLTVSS VL: EIVMTQSPATLSLSPGERVTLSCKASENVGSYVSWYQQKPGQAPRLLIYGASNRYTGVPARFSGSGSGTDFTLTISSVEPEDLAVYYCGQSYSYPLTFGGGTKLELKR |
| 1.44 | 54.2 | v28691 (antibody, human IgG1, kappa, L234A L235A, V domains shown, also called humanized 1G1 H3L1) VH: EVQLVESGGGLVQPGGSLRLSCAASGFTFSEFGMHWVRQAPGKGLEWVAYISSGGSTIYYADSVKGRFTISRDNAKNSLYLQMNSLRAEDTAMYYCARDWVDYWGQGTLLTVSS VL: EIVLTQSPATLSLSPGERATLSCKASENVGSYVSWYQQKPGQAPRLLIYGASNRYTGIPARFSGSGSGTDFTLTISSLEPEDFAVYYCGQSYSYPLTFGGGTKVEIKR |
| 0.247 | 38.5 | v28684 (antibody, human IgG1, kappa, L234A L235A, V domains shown, also called humanized 1G1 H1L2) VH: EVQLVESGGGLVQPGGSLRLSCAASGFTFSEFGMHWVRQAPGKGLEWVSYISSGGSTIYYADSVKGRFTISRDNAKNSLYLQMNSLRAEDTAVYYCARDWVDYWGQGTLVTVSS VL: EIVLTQSPATLSLSPGERATLSCKASENVGSYVSWYQQKPGQAPRLLIYGASNRYTGVPARFSGSGSGTDFTLTISSLEPEDFAVYYCGQSYSYPLTFGGGTKVEIKR |
| 0.486 | 58.3 | v28689 (antibody, human IgG1, kappa, L234A L235A, V domains shown, also called humanized 1G1 H2L3) VH: EVQLVESGGGLVQPGGSLRLSCAASGFTFSEFGMHWVRQAPGKGLEWVAYISSGGSTIYYADSVKGRFTISRDNAKNSLYLQMNSLRAEDTAVYYCARDWVDYWGQGTLLTVSS VL: EIVMTQSPATLSLSPGERVTLSCKASENVGSYVSWYQQKPGQAPRLLIYGASNRYTGVPARFSGSGSGTDFTLTISSVEPEDFAVYYCGQSYSYPLTFGGGTKLELKR |
| 1 | 40.3 | v28687 (antibody, human IgG1, kappa, L234A L235A, V domains shown, also called humanized 1G1 H2L1) VH: EVQLVESGGGLVQPGGSLRLSCAASGFTFSEFGMHWVRQAPGKGLEWVAYISSGGSTIYYADSVKGRFTISRDNAKNSLYLQMNSLRAEDTAVYYCARDWVDYWGQGTLLTVSS VL: EIVLTQSPATLSLSPGERATLSCKASENVGSYVSWYQQKPGQAPRLLIYGASNRYTGIPARFSGSGSGTDFTLTISSLEPEDFAVYYCGQSYSYPLTFGGGTKVEIKR |
|  | 763 | v28726 (antibody, human IgG1, kappa, L234A L235A, V domains shown, also called humanized 1C8 H7L3) VH: EVQLVESGGGLIQPGGSLRLSCAVSGFSLTTYAISWVRQAPGKGLEWLGIIWPGGGTNYADSVKGRFTISKDNSKNTLYLQMNSLRAEDTAVYYCARGAGTWYFDVWGQGTLVTVSS VL: DIQMTQSPSSLSASVGDRVTITCSASQGISNYLNWYQQKPGKTVKLLIYYTSSLHSGVPSRFSGSGSGTDYTLTISSLQPEDIATYYCQQYSKFPWTFGQGTKLEIKR |
| 713 | 1420 | v28728 (antibody, human IgG1, kappa, L234A L235A, V domains shown, also called humanized 1C8 H8L2) VH: EVQLVESGGGLIQPGGSLRISCAVSGFSLTTYAISWVRQAPGKGLEWLGIIWPGGGTNYADSLKGRLTISKDNSKNTVYLQMNSLRTEDTAVYYCARGAGTWYFDVWGQGTLVTVSS VL: DIQMTQSPSSLSASVGDRVTITCSASQGISNYLNWYQQKPGKAPKLLIYYTSSLHSGVPSRFSGSGSGTDYTLTISSLQPEDIATYYCQQYSKFPWTFGQGTKLEIKR |
| 24.2 | 813 | v28727 (antibody, human IgG1, kappa, L234A L235A, V domains shown, also called humanized 1C8 H8L1) VH: EVQLVESGGGLIQPGGSLRISCAVSGFSLTTYAISWVRQAPGKGLEWLGIIWPGGGTNYADSLKGRLTISKDNSKNTVYLQMNSLRTEDTAVYYCARGAGTWYFDVWGQGTLVTVSS VL: DIQMTQSPSSLSASVGDRVTITCSASQGISNYLNWYQQKPGKAPKLLIYYTSSLHSGVPSRFSGSGSGTDFTFTISSLQPEDIATYYCQQYSKFPWTFGQGTKVEIKR |
| 88.7 | 762 | v28730 (antibody, human IgG1, kappa, L234A L235A, V domains shown, also called humanized 1C8 H8L3) VH: EVQLVESGGGLIQPGGSLRISCAVSGFSLTTYAISWVRQAPGKGLEWLGIIWPGGGTNYADSLKGRLTISKDNSKNTVYLQMNSLRTEDTAVYYCARGAGTWYFDVWGQGTLVTVSS VL: DIQMTQSPSSLSASVGDRVTITCSASQGISNYLNWYQQKPGKTVKLLIYYTSSLHSGVPSRFSGSGSGTDYTLTISSLQPEDIATYYCQQYSKFPWTFGQGTKLEIKR |
|  | 574 | v28696 (antibody, human IgG1, kappa, L234A L235A, V domains shown, also called humanized 5G8 H1L2) VH: QVQLQESGPGLVKPSETLSLTCTVSGFSLISYGVHWIRQPPGKGLEWIGVIWSGGSTDYNPSLKSRVTISVDTSKNQFSLKLSSVTAADTAVYYCARNPLTATVMDYWGQGTLVTVSS VL: DIQMTQSPSSLSASVGDRVTITCRASQNVGTNVAWYQQKPGKAPKALIYSASYRDSGVPSRFSGSGSGTDFTLTISSLQPEDFATYYCQQYNSYPLTFGGGTKVEIKR |
|  | 735 | v28697 (antibody, human IgG1, kappa, L234A L235A, V domains shown, also called humanized 5G8 H1L3) VH: QVQLQESGPGLVKPSETLSLTCTVSGFSLISYGVHWIRQPPGKGLEWIGVIWSGGSTDYNPSLKSRVTISVDTSKNQFSLKLSSVTAADTAVYYCARNPLTATVMDYWGQGTLVTVSS VL: DIQMTQSPSSLSASVGDRVTVTCRASQNVGTNVAWYQQKPGKAPKALIYSASYRDSGVPSRFSGSGSGTDFTLTISSVQPEDFATYYCQQYNSYPLTFGGGTKLEIKR |
